Patent US12157773 (SYNTHEKINE, dated 2024)

T1: mIL27Rα ECD antigen (mouse, UniProt O70394 25-510)
T1 construct: Antigen of biopanning and PE-ELISA; The immunogen was made as a fusion of the ECD (residues 25-510 of the precursor) with the human IgG1 hinge and Fc; also called ECD of mouse IL27Rα; IL27Rα coated on the plate
T1 sequence: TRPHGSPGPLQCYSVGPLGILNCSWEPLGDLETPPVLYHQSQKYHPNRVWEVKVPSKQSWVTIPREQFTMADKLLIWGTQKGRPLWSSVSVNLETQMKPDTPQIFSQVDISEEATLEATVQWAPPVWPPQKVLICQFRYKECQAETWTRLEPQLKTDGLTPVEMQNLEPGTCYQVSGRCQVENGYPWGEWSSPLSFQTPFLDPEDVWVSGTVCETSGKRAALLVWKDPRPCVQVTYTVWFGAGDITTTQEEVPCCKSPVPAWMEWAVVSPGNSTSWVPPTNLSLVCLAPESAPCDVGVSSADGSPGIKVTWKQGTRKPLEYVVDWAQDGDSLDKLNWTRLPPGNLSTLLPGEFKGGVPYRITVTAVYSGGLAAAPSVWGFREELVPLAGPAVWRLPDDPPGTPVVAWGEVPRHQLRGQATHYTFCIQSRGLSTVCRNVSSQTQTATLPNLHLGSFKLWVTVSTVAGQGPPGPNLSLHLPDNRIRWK

B1: mIL27Ra VHH6 (VHH)
VHH: QVQLQESGGGSVQAGGSLRLSCAASGYTYSSYCMAWFRQAPGKEREGVAAIDSDGSTSYADSVKGRFTISKDNAKNTLYLQMNSLKPEDTAMYYCAAASGRCLGPGIRSLIWGQGTQVTVSS
notes: Camel VHH as periplasmic extract of a phage clone in the PE-ELISA; also called anti-mouse IL27Rα VHH; not shown: HA/His tag from the pMECS phagemid
B2: mIL27Ra VHH7 (VHH)
VHH: QVQLQESGGGSVQAGGSLRLSCAVSGDSTYSMGWFRQPPGKEREGVAAITKDITIHADSVKGRFTISKDNAKNTLYLQMNSLKPEDTAMYYCAAHRPYGPPLNPRWYTYWGQGTQVTVSS
notes: as for B1
B3: mIL27Ra VHH11 (VHH)
VHH: QVQLQESGGGSVQAGGSLRLSCAVSGDSTYSMGWFRQPPGKEREGVAAITKDITIHADSVKGRFTISKDNAKNTLYLQMNSLRPEDTAMYYCAAHRPYGPPLNPRWYTYWGQGTQVTVSS
notes: as for B1
B4: mIL27Ra VHH5 (VHH)
VHH: QVQLQESGGGSVQAGGSLRLSCAVSGDSTYSMGWFRQPPGKEREGVAAIAKDGITIHADSVKGRFTISKDNAKNTLYLQMNSLKPEDTAMYYCAAHRPYGPPLNPRWYTYWGQGTQVTVSS
notes: as for B1
B5: mIL27Ra VHH14 (VHH)
VHH: QVQLQESGGGSVQAGGSLRLSCAVSGDSTYSMGWFRQPPGKEREGVAAITKDGITIHADSVKGRFTISGDNAKNTLYLQMNNLKPEDTAMYYCAAHRPYGPPLNPRWYTYWGQGTQVTVSS
notes: as for B1
B6: mIL27Ra VHH9 (VHH)
VHH: QVQLQESGGGSVQAGGSLRLSCAVSGDSTYSMGWFRQPPGKEREGVAAIAKDGITIHADSVKGRFTISKDNAKNTLYLQMSSLKPEDTAMYYCAAHRPYGPPLNPRWYTYWGQGTQVTVSS
notes: as for B1
B7: mIL27Ra VHH10 (VHH)
VHH: QVQLQESGGGSVQAGGSLRLSCAVSGDSTYSMGWFRQPPGKEREGVAAIGKDGITIHADSVKGRFTISKDNAKNTLYLQMNSLKPEDTAMYYCAAHRPYGPPLNPRWYTYWGQGTQVTVSS
notes: as for B1
B8: mIL27Ra VHH8 (VHH)
VHH: QVQLQESGGGSVQAGGSLRLSCAVSGDSTYSMGWFRQPPGKEREGVAAIPTDGITIHADSVKGRFTISKDNAKNTLYLQMNSLKPEDTAMYYCAAHRPYGPPLNPRWYTYWGQGTQVTVSS
notes: as for B1

Target: T1, mIL27Rα ECD antigen
Experiment: PE-ELISA, periplasmic extract on antigen-coated plate
Protocol: Upon completion of the biopanning of Example 3, three 96-well plates of individual phage clones were isolated in order to perform periplasmic extract ELISA (PE-ELISA) on IL27Rα coated plates to identify positive VHH binders that selectively bound […]. A 96-well plate was coated with IL27Rα and PBS under the same conditions. Next, wells were blocked at 37° C. for 1 h. Then, 100 µl of extracted antibodies was added to each well and incubated for 1 h. Subsequently, 100 µl of anti-tag polyclonal antibody conjugated to HRP was added to each well and incubated at 37° C. for 1 h. Plates were developed with TMB substrate. The reaction was stopped by the addition of H2SO4. Absorbance at 450 nm was read on a microtiter plate reader. […] Positive clones were sequenced, and sequences analyzed to identify unique clonotypes.

Binder | binding result
B1 | binds
B2 | binds
B3 | binds
B4 | binds
B5 | binds
B6 | binds
B7 | binds
B8 | binds
